B1: ADP159 (protein)
chain: MAALRPTLLPPSLPLLLLLMLGMGCWAREVLVPEGPLYRVAGTAVSISCNVTGYEGPAQQNFEWFLYRPEAPDTALGIVSTKDTQFSYAVFKSRVVAGEVQVQRLQGDAVVLKIARLQAQDAGIYECHTPSTDTRYLGSYSGKVELRVLPDVLQVSAAPPGPRGRQAPTSPPRMTVHEGQELALGCLARTSTQKHTHLAVSFGRSVPEAPVGRSTLQEVVGIRSDLAVEAGAPYAERLAAGELRLGKEGTDRYRMVVGGAQAGDAGTYHCTAAEWIQDPDGSWAQIAEKRAVLAHVDVQTLSSQLAVTVGPGERRIGPGEPLELLCNVSGALPPAGRHAAYSVGWEMAPAGAPGPGRLVAQLDTEGVGSLGPGYEGRHIAMEKVASRTYRLRLEAARPGDAGTYRCLAKAYVRGSGTRLREAASARSRPLPVHVREEGVVLEAVAWLAGGTVYRGETASLLCNISVRGGPPGLRLAASWWVERPEDGELSSVPAQLVGGVGQDGVAELGVRPGGGPVSVELVGPRSHRLRLHSLGPEDEGVYHCAPSAWVQHADYSWYQAGSARSGPVTVYPYMHALDT
modifications: bait human Fc-tagged dimer
B2: ADP344 (protein)
chain: MAWSFFRVVAMLFIFLVVVEVNSEFRIQVRDYNTKNGTIKWHSIRRQKREWIKFAAACREGEDNSKRNPIAKIHSDCAANQQVTYRISGVGIDQPPYGIFVINQKTGEINITSIVDREVTPFFIIYCRALNSMGQDLERPLELRVRVLDINDNPPVFSMATFAGQIEENSNANTLVMILNATDADEPNNLNSKIAFKIIRQEPSDSPMFIINRNTGEIRTMNNFLDREQYGQYALAVRGSDRDGGADGMSAECECNIKILDVNDNIPYMEQSSYTIEIQENTLNSNLLEIRVIDLDEEFSANWMAVIFFISGNEGNWFEIEMNERTNVGILKVVKPLDYEAMQSLQLSIGVRNKAEFHHSIMSQYKLKASAISVTVLNVIEGPVFRPGSKTYVVTGNMGSNDKVGDFVATDLDTGRPSTTVRYVMGNNPADLLAVDSRTGKLTLKNKVTKEQYNMLGGKYQGTILSIDDNLQRTCTGTININIQSFGNDDRTNTEPNTKITTNTGRQESTSSTNYDTSTTSTDSSQVYSSEPGNGAKDLLSDNVHFGPAG
modifications: bait human Fc-tagged dimer
B3: ADP304 (protein)
chain: MASGWWLWPLVAVCTADFFRDEAERIMRDSPVIDGHNDLPWQLLDMFNNRLQDERANLTTLAGTHTNIPKLRAGFVGGQFWSVYTPCDTQNKDAVRRTLEQMDVVHRMCRMYPETFLYVTSSAGIRQAFREGKVASLIGVEGGHSIDSSLGVLRALYQLGMRYLTLTHSCNTPWADNWLVDTGDSEPQSQGLSPFGQRVVKELNRLGVLIDLAHVSVATMKATLQLSRAPVIFSHSSAYSVCASRRNVPDDVLRLVKQTDSLVMVNFYNNYISCTNKANLSQVADHLDHIKEVAGARAVGFGGDFDGVPRVPEGLEDVSKYPDLIAELLRRNWTEAEVKGALADNLLRVFEAVEQASNLTQAPEEEPIPLDQLGGSCRTHYGYSS
modifications: bait human Fc-tagged dimer
B4: ADP137 (protein)
chain: MAVVGNPRSWSCQWLPILILLLGTGHGPGVEGVTHYKAGDPVILYVNKVGPYHNPQETYHYYQLPVCCPEKIRHKSLSLGEVLDGDRMAESLYEIRFRENVEKRILCHMQLSSAQVEQLRQAIEELYYFEFVVDDLPIRGFVGYMEESGFLPHSHKIGLWTHLDFHLEFHGDRIIFANVSVRDVKPHSLDGLRPDEFLGLTHTYSVRWSETSVERRSDRRRGDDGGFFPRTLEIHWLS
modifications: bait human Fc-tagged dimer
B5: ADP264 (protein)
chain: GRFSLFGLGGEPGGGAAGPAAAADGGTVDLREMLAVSVLAAVRGGDEVRRVRESNVLHEKSKGKTREGAEDKMTSGDVLSNRKMFYLLKTAFPSVQINTEEHVDAADQEVILWDHKIPEDILKEVTTPKEVPAESVTVWIDPLDATQEYTEDLRKYVTTMVCVAVNGKPMLGVIHKPFSEYTAWAMVDGGSNVKARSSYNEKTPRIVVSRSHSGMVKQVALQTFGNQTTIIPAGGAGYKVLALLDVPDKSQEKADLYIHVTYIKKWDICAGNAILKALGGHMTTLSGEEISYTGSDGIEGGLLASIRMNHQALVRKLPDLEKTGHK
modifications: bait human Fc-tagged dimer
B6: ADP388 (protein)
chain: SEGHGGAQLQAELRSLKEAFSNFSSSTLTEVQAISTHGGSVGDKITSLGAKLEKQQQDLKADHDALLFHLKHFPVDLRFVACQMELLHSNGSQRTCCPVNWVEHQGSCYWFSHSGKAWAEAEKYCQLENAHLVVINSWEEQKFIVQHTNPFNTWIGLTDSDGSWKWVDGTDYRHNYKNWAVTQPDNWHGHELGGSEDCVEVQPDGRWNDDFCLQVYRWVCEKRRNATGEVA
modifications: bait human Fc-tagged dimer
B7: ADP281 (protein)
chain: SIYEMVVDVLFLCFAIDTKYNDGSPGREFYMDKVLMEFVENSRKAMKEAGKGGVADSRELKPMASG
modifications: also: human Fc-tagged dimer
B8: ADP351 (protein)
chain: MARRRGSPGMGVHVGAALGALWFCLTGALEVQVPEDPVVALVGTDATLCCSFSPEPGFSLAQLNLIWQLTDTKQLVHSFAEGQDQGSAYANRTALFPDLLAQGNASLRLQRVRVADEGSFTCFVSIRDFGSAAVSLQVAAPYSKPSMTLEPNKDLRPGDTVTITCSSYQGYPEAEVFWQDGQGVPLTGNVTTSQMANEQGLFDVHSILRVVLGANGTYSCLVRNPVLQQDAHSSVTITPQRSPTGAVEVQVPEDPVVALVGTDATLRCSFSPEPGFSLAQLNLIWQLTDTKQLVHSFTEGRDQGSAYANRTALFPDLLAQGNASLRLQRVRVADEGSFTCFVSIRDFGSAAVSLQVAAPYSKPSMTLEPNKDLRPGDTVTITCSSYRGYPEAEVFWQDGQGVPLTGNVTTSQMANEQGLFDVHSVLRVVLGANGTYSCLVRNPVLQQDAHGSVTITGQPMTFPP
modifications: bait human Fc-tagged dimer
B9: ADP375 (protein)
chain: SSKYAPDENCPDQNPRLRNWDPGQDSAKQVVIKEGDMLRLTSDATVHSIVIQDGGLLVFGDNKDGSRNITLRTHYILIQDGGALHIGAEKCRYKSKATITLYGKSDEGESMPTFGKKFIGVEAGGTLELHGARKASWTLLARTLNSSGLPFGSYTFEKDFSRGLNVRVIDQDTAKILESERFDTHEYRNESRRLQEFLRFQDPGRIVAIAVGDSAAKSLLQGTIQMIQERLGSELIQGLGYRQAWALVGVIDGGSTSCNESVRNYENHSSGGKALAQREFYTVDGQKFSVTAYSEWIEGVSLSGFRVEVVDGVKLNLLDDVSSWKPGDQIVVASTDYSMYQAEEFTLLPCSECSHFQVKVKETPQFLHMGEIIDGVDMRAEVGILTRNIVIQGEVEDSCYAENQCQFFDYDTFGGHIMIMKNFTSVHLSYVELKHMGQQQMGRYPVHFHLCGDVDYKGGYRHATFVDGLSIHHSFSRCITVHGTNGLLIKDTIGFDTLGHCFFLEDGIEQRNTLFHNLGLLTKPGTLLPTDRNNSMCTTMRDKVFGNYIPVPATDCMAVSTFWIAHPNNNLINNAAAGSQDAGIWYLFHKEPTGESSGLQLLAKPELTPLGIFYNNRVHSNFKAGLFIDKGVKTTNSSAADPREYLCLDNSARFRPHQDANPEKPRVAALIDRLIAFKNNDNGAWVRGGDIIVQNSAFADNGIGLTFASDGSFPSDEGSSQEVSESLFVGESRNYGFQGGQNKYVGTGGIDQKPRTLPRNRTFPIRGFQIYDGPIHLTRSTFKKYVPTPDRYSSAIGFLMKNSWQITPRNNISLVKFGPHVSLNVFFGKPGPWFEDCEMDGDKNSIFHDIDGSVTGYKDAYVGRMDNYLIRHPSCVNVSKWNAVICSGTYAQVYVQTWSTQNLSMTITRDEYPSNPMVLRGINQKAAFPQYQPVVMLEKGYTIHWNGPAPRTTFLYLVNFNKNDWIRVGLCYPSNTSFQVTFGYLQRQNGSLSKIEEYEPVHSLEELQRKQSERKFYFDSSTGLLFLYLKAKSHRHGHSYCSSQGCERVKIQAATDSKDISNCMAKAYPQYYRKPSVVKRMPAMLTGLCQGCGTRQVVFTSDPHKSYLPVQFQSPDKAETQRGDPSVISVNGTDFTFRSAGVLLLVVDPCSVPFRLTEKTVFPLADVSRIEEYLKTGIPPRSIVLLSTRGEIKQLNISHLLVPLGLAKPAHLYDKGSTIFLGFSGNFKPSWTKLFTSPAGQGLGVLEQFIPLQLDEYGCPRATTVRRRDLELLKQASKAH
modifications: bait human Fc-tagged dimer
B10: ADP345 (protein)
chain: MALLAGGLSRGLGSHPAAAGRDAVVFVWLLLSTWCTAPARAIQVTVSNPYHVVILFQPVTLPCTYQMTSTPTQPIVIWKYKSFCRDRIADAFSPASVDNQLNAQLAAGNPGYNPYVECQDSVRTVRVVATKQGNAVTLGDYYQGRRITITGNADLTFDQTAWGDSGVYYCSVVSAQDLQGNNEAYAELIVLGRTSGVAELLPGFQAGP
modifications: bait human Fc-tagged dimer
B11: ADP282 (protein)
chain: STWVTSEAYSSPSIVLSARGGDGSRIIFDDFREAYYWLRHNTPEDAKVMSWWDYGYQITAMANRTILVDNNTWNNTHISRVGQAMASTEEKAYEIMRELDVSYVLVIFGGLTGYSSDDINKFLWMVRIGGSTDTGKHIKENDYYTPTGEFRVDREGSPVLLNCLMYKMCYYRFGQVYTEAKRPPGFDRVRNAEIGNKDFELDVLEEAYTTEHWLVRIYKVKDLDNRGLSRT
modifications: bait human Fc-tagged dimer
B12: ADP149 (protein)
chain: MAWKHVPFLVMISLLSLSPNHLFLAQLIPDPEDVERGNDHGTPIPTSDNDDNSLGYTGSRLRQEDFPPRIVEHPSDLIVSKGEPATLNCKAEGRPTPTIEWYKGGERVETDKDDPRSHRMLLPSGSLFFLRIVHGRKSRPDEGVYVCVARNYLGEAVSHNASLEVAILRDDFRQNPSDVMVAVGEPAVMECQPPRGHPEPTISWKKDGSPLDDKDERITIRGGKLMITYTRKSDAGKYVCVGTNMVGERESEVAELTVLERPSFVKRPSNLAVTVDDSAEFKCEARGDPVPTVRWRKDDGELPKSRYEIRDDHTLKIRKVTAGDMGSYTCVAENMVGKAEASATLTVQEPPHFVVKPRDQVVALGRTVTFQCEATGNPQPAIFWRREGSQNLLFSYQPPQSSSRFSVSQTGDLTITNVQRSDVGYYICQTLNVAGSIITKAYLEVTDVIADRPPPVIRQGPVNQTVAVDGTFVLSCVATGSPVPTILWRKDGVLVSTQDSRIKQLENGVLQIRYAKLGDTGRYTCIASTPSGEATWSAYIEVQEFGVPVQPPRPTDPNLIPSAPSKPEVTDVSRNTVTLSWQPNLNSGATPTSYIIEAFSHASGSSWQTVAENVKTETSAIKGLKPNAIYLFLVRAANAYGISDPSQISDPVKTQDVLPTSQGVDHKQVQRELGNAVLHLHNPTVLSSSSIEVHWTVDQQSQYIQGYKILYRPSGANHGESDWLVFEVRTPAKNSVVIPDLRKGVNYEIKARPFFNEFQGADSEIKFAKTLEEAPSAPPQGVTVSKNDGNGTAILVSWQPPPEDTQNGMVQEYKVWCLGNETRYHINKTVDGSTFSVVIPFLVPGIRYSVEVAASTGAGSGVKSEPQFIQLDAHGNPVSPEDQVSLAQQISDVVKQP
modifications: bait human Fc-tagged dimer

No end group written: not given here.

We go through 13 molecules from article PMC11098746 (2024).

For the assay, the target named is Circumsporozoite protein (CSP) (Plasmodium falciparum (isolate 3D7), UniProt Q7K740). Nature of the assay: AVEXIS screen signal:noise (double-corrected).
Circumsporozoite protein (CSP), sequence (Q7K740 19-374): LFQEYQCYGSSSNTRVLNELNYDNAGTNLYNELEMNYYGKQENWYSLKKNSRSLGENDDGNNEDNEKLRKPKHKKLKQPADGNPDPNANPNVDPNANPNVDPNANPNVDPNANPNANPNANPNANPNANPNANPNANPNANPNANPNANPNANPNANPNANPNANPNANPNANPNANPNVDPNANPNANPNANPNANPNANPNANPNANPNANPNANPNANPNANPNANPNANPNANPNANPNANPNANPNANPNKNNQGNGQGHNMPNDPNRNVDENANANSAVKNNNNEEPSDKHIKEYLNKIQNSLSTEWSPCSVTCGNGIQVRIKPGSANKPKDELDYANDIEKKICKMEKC
Consider B1, for which the binding score is 0.885.

The molecule MTGLSMDGGGSPKGDVDPFYYDYETVRN (also: human Fc-tagged dimer) [ADP286] returned a binding score of 1.14.

Molecule B2 registered a binding score of 1.01.

The molecule B3 had a binding score of 0.718.

As to B4, the binding score was determined as 0.831.

B5 had a binding score of 0.964.

B6: the binding score was 0.484.

B7 displayed a binding score of 0.848.

Consider B8, for which the binding score stood at 1.23.

The molecule B9 yielded a binding score of 0.71.

On to B10, for which the binding score came out at 0.842.

As for B11, the binding score turned out to be 0.691.

B12 returned a binding score of 0.924.
